The target in this data set is EjERF39 (Eriobotrya japonica cv. Luoyangqing …, UniProt A0A482LZG5 1-253). Briefly: EMSA; not given in the material; EMSA as described by Ge et al. (2017). Conditions: protein: recombinant; tags: GST (pGEX-4T-1); label: 3' biotin. For orientation: A gel shift assay detects complexes by their altered migration in electrophoresis.

The results in this text go back to paper PMC7475177, “[…] RESPONSE FACTOR39–MYB8 complex regulates low-temperature-induced lignification of loquat fruit”.

Sequence of EjERF39 (A0A482LZG5 entry or part of it): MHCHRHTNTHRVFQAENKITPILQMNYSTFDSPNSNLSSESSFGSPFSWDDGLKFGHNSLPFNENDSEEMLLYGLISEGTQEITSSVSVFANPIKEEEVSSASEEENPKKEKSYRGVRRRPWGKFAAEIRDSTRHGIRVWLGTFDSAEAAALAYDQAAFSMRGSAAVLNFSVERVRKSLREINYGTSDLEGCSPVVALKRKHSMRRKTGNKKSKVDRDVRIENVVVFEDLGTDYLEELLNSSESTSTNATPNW

B1: Ej4CL1 promoter DRE2 probe (dsDNA)
DNA 1: GTTCACAAGACAATCTGGCCGACCTCTTCACAAAATCAGT
DNA 2: ACTGATTTTGTGAAGAGGTCGGCCAGATTGTCTTGTGAAC
For B1, the binding result is on record as “binds”.

B2: Ej4CL1 promoter DRE1 probe (dsDNA)
DNA 1: TCGCCTTGTTGGTTATGCCGACGCAGGATACTTGTCTG
DNA 2: CAGACAAGTATCCTGCGTCGGCATAACCAACAAGGCGA
Consider B2, for which the binding result is “no binding”.
